Here are results for 42 sequences from the Immune Epitope Database (IEDB).

The first assay deals with HLA-A*68:01. Description: IEDB peptide-MHC binding, purified MHC/competitive/radioactivity; filed as Kd, often an IC50 or EC50 that approximates it; ≥ and ≤ were set here for values at or beyond the usual limits of such assays. The conditions noted are these: source organism: Lassa virus Josiah.
VTFLLLCGR: the Kd was determined as 0.0138 µM.

Staying with this assay, now noted: source organism: Lymphocytic choriomeningitis virus (strain Armstrong).
Consider SKFWYLEHAK, for which the Kd was at least 30.6 µM.

Still in this assay, the particulars now being: source organism: Mammarenavirus brazilense.
For TALAKCNLDH, the Kd was at least 35.1 µM.

Still in this assay, the particulars now being: source organism: Mammarenavirus juninense.
Turning to SKQYIHCFRK, the Kd was determined as 2.54 µM.

The assay is the same for the next values; noted with them: source organism: Mammarenavirus lassaense.
With TCQGSDDIKK, the Kd was 4.45 µM.

The assay is the same for the next values; noted with them: source organism: SARS coronavirus Tor2.
RLCLFDRYFK: the dissociation constant Kd was determined as 0.861 µM.

For SMQNCLLRLK, the Kd worked out at 1.28 µM.

Consider TLNVLAWLY, for which the Kd came out at 13.2 µM.

Turning to TQWSLFFFVY, the Kd was 6.71 µM.

As to TSTGNYNYK, the dissociation constant Kd is 0.0372 µM.

For TTTSTALGK, the Kd worked out at 0.028 µM.

Turning to VLLRKNGNK, the Kd was at least 26.1 µM.

Staying with this assay, now noted: source organism: Vaccinia virus Copenhagen.
With SLLKETIQK, the Kd came to 3.48 µM.

On to YTFAISYCR, for which the Kd is 0.000418 µM.

Still in this assay, the particulars now being: source organism: Vaccinia virus WR.
QLLKILDNLR: the Kd is 0.561 µM.

Turning to QQFANVISK, the Kd stood at 0.71 µM.

Turning to RLFRSPQVK, the Kd came out at 3.67 µM.

On to SIHLTKTDK, for which the Kd came out at 0.14 µM.

STSAADIKR: the Kd amounted to 0.00519 µM.

Take SVSAKQLRTR: the Kd was 0.148 µM.

On to SVSIILANER, for which the Kd was found to be 0.000432 µM.

TIISEEYLSK: the Kd was 0.0166 µM.

In the case of TSLAIKNYY, the Kd turned out to be 1.67 µM.

With TTLLNETAK, the Kd is 0.0102 µM.

For the sequence TTYDFLARK, the Kd was 0.105 µM.

As to TVKMGAFMY, the Kd is 0.0489 µM.

As for VFKGFSDKVR, the equilibrium dissociation constant (Kd) was at least 26.8 µM.

Take VLEIINDKGK: the Kd is at least 70.2 µM.

For VSDLYTSMR, the Kd was 0.651 µM.

Regarding YITDDSDDY, the Kd is at least 77.7 µM.

As to YTISSESLVY, the Kd amounted to 0.0214 µM.

The next assay has as its target HLA-A*03:01. Described as above. To be noted: source organism: Lassa virus Josiah.
As to VTFLLLCGR, the Kd was determined as 3.06 µM.

The assay is the same for the next values; noted with them: source organism: Lymphocytic choriomeningitis virus (strain Armstrong).
As for SKFWYLEHAK, the Kd turned out to be 18.8 µM.

The same assay, now with this note: source organism: Mammarenavirus brazilense.
For the sequence TALAKCNLDH, the Kd was at least 70 µM.

Still in this assay, the particulars now being: source organism: Mammarenavirus juninense.
Turning to SKQYIHCFRK, the Kd is 4.5 µM.

The same assay, now with this note: source organism: Mammarenavirus lassaense.
Regarding TCQGSDDIKK, the Kd was at least 70 µM.

The same assay, now with this note: source organism: SARS coronavirus Tor2.
With RLCLFDRYFK, the dissociation constant (Kd) was 0.0238 µM.

Consider SMQNCLLRLK, for which the Kd is 0.00994 µM.

Consider TLNVLAWLY, for which the Kd turned out to be 0.0365 µM.

Take TQWSLFFFVY: the Kd came to 2.51 µM.

Consider TSTGNYNYK, for which the Kd was 1.46 µM.

As for TTTSTALGK, the Kd was 0.718 µM.

Take VLLRKNGNK: the Kd came out at 0.0422 µM.

Staying with this assay, now noted: source organism: Vaccinia virus Copenhagen.
Consider SLLKETIQK, for which the Kd is 0.0396 µM.

On to YTFAISYCR, for which the dissociation constant (Kd) is 2.76 µM.

Still in this assay, the particulars now being: source organism: Vaccinia virus WR.
Take QLLKILDNLR: the Kd is at least 70.1 µM.

For QQFANVISK, the Kd worked out at 0.0556 µM.

With RLFRSPQVK, the Kd turned out to be 0.0872 µM.

In the case of SIHLTKTDK, the Kd stood at 0.00674 µM.

Take STSAADIKR: the Kd is at least 30.4 µM.

As to SVSAKQLRTR, the Kd worked out at 0.168 µM.

As to SVSIILANER, the Kd came out at 2.52 µM.

For the sequence TIISEEYLSK, the Kd came out at 0.0395 µM.

With TSLAIKNYY, the Kd came to 18.2 µM.

On to TTLLNETAK, for which the Kd turned out to be 0.201 µM.

Turning to TTYDFLARK, the Kd worked out at 0.0474 µM.

As to TVKMGAFMY, the Kd was 0.523 µM.

In the case of VFKGFSDKVR, the Kd was at least 70.1 µM.

VLEIINDKGK: the Kd turned out to be 10.1 µM.

Turning to VSDLYTSMR, the Kd stood at 2.49 µM.

In the case of YITDDSDDY, the dissociation constant (Kd) is at least 78 µM.

As to YTISSESLVY, the Kd came to 0.831 µM.

In a further assay the target is HLA-A*11:01. The assay is described as above. To be noted: source organism: Lassa virus Josiah.
As to VTFLLLCGR, the Kd amounted to 0.0182 µM.

Still in this assay, the particulars now being: source organism: Lymphocytic choriomeningitis virus (strain Armstrong).
Consider SKFWYLEHAK, for which the Kd was 5.19 µM.

Staying with this assay, now noted: source organism: Mammarenavirus brazilense.
Take TALAKCNLDH: the Kd is at least 69.7 µM.

Staying with this assay, now noted: source organism: Mammarenavirus juninense.
In the case of SKQYIHCFRK, the Kd is 1.52 µM.

The same assay, now with this note: source organism: Mammarenavirus lassaense.
On to TCQGSDDIKK, for which the Kd was 13 µM.

Still in this assay, the particulars now being: source organism: SARS coronavirus Tor2.
With RLCLFDRYFK, the Kd is 0.0565 µM.

Regarding SMQNCLLRLK, the Kd was 0.0178 µM.

TLNVLAWLY: the Kd worked out at 0.025 µM.

Take TQWSLFFFVY: the Kd stood at 0.358 µM.

For the sequence TSTGNYNYK, the Kd was 0.0211 µM.

Take TTTSTALGK: the Kd turned out to be 0.0318 µM.

As to VLLRKNGNK, the Kd came to 1.66 µM.

The assay is the same for the next values; noted with them: source organism: Vaccinia virus Copenhagen.
SLLKETIQK: the Kd was 0.0168 µM.

As to YTFAISYCR, the Kd stood at 0.00335 µM.

Still in this assay, the particulars now being: source organism: Vaccinia virus WR.
For QLLKILDNLR, the Kd stood at 15.1 µM.

QQFANVISK: the Kd amounted to 0.00238 µM.

RLFRSPQVK: the Kd is 0.715 µM.

With SIHLTKTDK, the Kd was 0.00938 µM.

Take STSAADIKR: the Kd was found to be 0.0132 µM.

Turning to SVSAKQLRTR, the Kd amounted to 0.0908 µM.

As for SVSIILANER, the Kd amounted to 0.0771 µM.

TIISEEYLSK: the Kd worked out at 0.00174 µM.

As for TSLAIKNYY, the Kd came to 0.294 µM.

As for TTLLNETAK, the Kd stood at 0.0131 µM.

For TTYDFLARK, the Kd was 0.000395 µM.

TVKMGAFMY: the Kd was determined as 0.0253 µM.

In the case of VFKGFSDKVR, the Kd turned out to be 2.64 µM.

Consider VLEIINDKGK, for which the Kd was 2.52 µM.

As for VSDLYTSMR, the Kd was found to be 4.65 µM.

As to YITDDSDDY, the Kd is at least 77.9 µM.

Regarding YTISSESLVY, the Kd stood at 0.0318 µM.

The target of the next assay is HLA-A*02:02. The description is as above. The conditions noted are these: source organism: Lassa virus Josiah.
Turning to FSTSFYLISI, the Kd turned out to be 0.00213 µM.

Still in this assay, the particulars now being: source organism: SARS coronavirus Tor2.
Consider FLFLAWIML, for which the Kd is 0.00181 µM.

The same assay, now with this note: source organism: Vaccinia virus WR.
Take AVLSEYETMV: the Kd was found to be 0.000758 µM.

Consider CLEAKTHFST, for which the Kd was determined as 12.4 µM.

For the sequence DIDLLFNEKL, the Kd is 11.2 µM.

Take DILQMREIIT: the Kd was at least 45.5 µM.

Regarding EIARIENEM, the Kd was determined as 0.335 µM.

For ELKHGLLDSI, the Kd is 0.54 µM.

Turning to FISIYSRPKI, the Kd came out at 0.0228 µM.

With FLFWFLKSGA, the Kd amounted to 0.00107 µM.

Take FVSTMPVET: the Kd was 1.22 µM.
